{"source": "paper PMC11243334", "about": "“Synthesis and Evaluation of the First ^68Ga-Labeled C-Terminal Hydroxamate-Derived Gastrin-Releasing Peptide Receptor-Targeted Tracers for Cancer Imaging with Positron Emission Tomography” (Molecules, 2024)", "key": {"[1]": {"system": "PC-3 tumor xenografts", "test": "PET/CT imaging in mice bearing PC-3 tumor xenografts", "format": "in vivo", "details": "1 h post injection", "description": "(§1) Imaging and biodistribution studies were performed on male NOD.Cg-Rag1^tm1Mom Il2rg^tm1Wjl/SzJ (NRG) mice following previously published procedures. The experiments were conducted following the guidelines established by the Canadian Council on Animal Care and approved by Animal Ethics Committee of the University of British Columbia. The mice were sedated (2.5% isoflurane in oxygen) and injected with 5 × 10^6 PC-3 cells (100 µL; 1:1 PBS/Matrigel) subcutaneously behind the left shoulder. The tumor-bearing mice were used for PET/CT imaging and biodistribution studies when the tumor grew to 5–8 mm in diameter.\nPET/CT imaging experiments were performed on a Siemens (Knoxville, TN, USA) Inveon micro PET/CT scanner. Each tumor-bearing mouse was injected with ~3–6 MBq of ^68Ga-labeled tracer through a lateral caudal tail vein under anaesthesia. At around 50 min post injection, a 10 min CT scan was obtained first for localization and attenuation correction after segmentation for reconstructing the PET image, followed by a 10 min static PET scan."}, "[2]": {"test": "Ex vivo biodistribution in PC-3 tumor-bearing mice", "details": "male, mouse, iv, total radioactivity, mean ± SD, n = 4; for tissue uptake at 1 h: NOD.Cg-Rag1^tm1Mom Il2rg^tm1Wjl/SzJ (NRG); for tissue to tissue ratio at 1 h: NOD.Cg-Rag1tm1Mom Il2rgtm1Wjl/SzJ (NRG)", "description": "(§2) Biodistribution studies were conducted for ^68Ga-labeled SB3, LW02075 and LW02050 in PC-3 tumor-bearing mice (n = 4).\nas §1\n(§3) For biodistribution studies, the mice were injected with the radiotracer (~2–4 MBq), as described above. Blocking of [^68Ga]Ga-LW02075 and [^68Ga]Ga-LW02050 was conducted by co-injection with 100 μg nonradioactive Ga-LW02075 and Ga-LW02050, respectively, through a lateral caudal tail vein under anaesthesia. At 1 h post injection, the mice were sedated and euthanized by CO2 inhalation. Blood was collected via cardiac puncture, and organs/tissues of interest were collected, weighed, and counted on a Perkin Elmer (Waltham, MA, USA) Wizard2 2480 automatic gamma counter."}, "[3]": {"system": "PC-3 tumor-bearing mice", "test": "Ex vivo biodistribution in PC-3 tumor-bearing mice", "details": "1 h post injection, 100 μg nonradioactive standard co-injected", "description": "as §2, §1, §3"}, "[4]": {"test": "physchem", "details": "n-octanol/DPBS, pH 7.4", "description": "LogD7.4 values of [^68Ga]Ga-LW02075, [^68Ga]Ga-LW02050, and [^68Ga]Ga-SB3 were measured via the shake flask method. An aliquot of the ^68Ga-labeled tracer (~1.85 MBq) was added to a 15 mL falcon tube containing 3 mL of n-octanol and 3 mL of DPBS (pH 7.4) followed by 1 min of vortex (n = 3). After that, the mixture was centrifuged at 5000 rpm for 10 min, and samples of the n-octanol (1 mL) and buffer (1 mL) layers were collected and counted on a Perkin Elmer (Waltham, MA, USA) Wizard2 2480 automatic gamma counter. The LogD7.4 values of [^68Ga]Ga-LW02075, [^68Ga]Ga-LW02050, and [^68Ga]Ga-SB3 were calculated following the equation: LogD7.4 = log10[(counts in the n-octanol phase)/(counts in the buffer phase)]."}}, "note": "Read-outs that look alike come from different tables or passages of the source.", "data": [{"smiles": "CC(C)C[C@H](NC(=O)[C@H](Cc1c[nH]cn1)NC(=O)CNC(=O)[C@@H](NC(=O)[C@H](C)NC(=O)[C@H](Cc1c[nH]c2ccccc12)NC(=O)[C@H](CCC(N)=O)NC(=O)[C@@H](Cc1ccccc1)NC(=O)CN1CCC(NC(=O)CN2CCN(CC(=O)O)CCN(CC(=O)O)CCN(CC(=O)O)CC2)CC1)C(C)C)C(=O)NO", "note": "[[^68Ga]Ga-LW02050, [^68Ga]Ga-DOTA-Pip-D-Phe-Gln-Trp-Ala-Val-Gly-His-Leu-NHOH, metal not drawn]", "values": [{"measurement": "Uptake in PC-3 tumor xenograft in PET image with blocking", "setting": "[1]; co-injection with 100 μg nonradioactive standard", "value": "close to the background level"}, {"measurement": "Excretion pathway in PET images", "setting": "[1]; mice", "value": "excreted primarily through the renal pathway"}, {"measurement": "Pancreas in PET images", "setting": "[1]; mice", "value": "nearly invisible"}, {"measurement": "Visualization of PC-3 tumor xenografts in PET images", "setting": "[1]; ~3–6 MBq i.v., mice", "value": "clearly visualized"}, {"measurement": "tissue uptake at 1 h", "setting": "[2]; PC-3 tumor, 1 h blocked: co-injected with 100 µg nonradioactive Ga-complexed standard, read-out: PC-3 tumor uptake, blocked", "value": "0.42 ± 0.08", "unit": "%ID/g"}, {"measurement": "tissue uptake at 1 h", "setting": "[2]; PC-3 tumor, 1 h post injection, read-out: PC-3 tumor uptake", "value": "5.38 ± 1", "unit": "%ID/g"}, {"measurement": "tissue uptake at 1 h", "setting": "[2]; adrenal glands, 1 h blocked: co-injected with 100 µg nonradioactive Ga-complexed standard, read-out: Adrenal glands uptake, blocked", "value": "0.05 ± 0.05", "unit": "%ID/g"}, {"measurement": "tissue uptake at 1 h", "setting": "[2]; adrenal glands, 1 h post injection, read-out: Adrenal glands uptake", "value": "0.43 ± 0.15", "unit": "%ID/g"}, {"measurement": "tissue uptake at 1 h", "setting": "[2]; blood, 1 h blocked: co-injected with 100 µg nonradioactive Ga-complexed standard, read-out: Blood uptake, blocked", "value": "0.34 ± 0.06", "unit": "%ID/g"}, {"measurement": "tissue uptake at 1 h", "setting": "[2]; blood, 1 h post injection, read-out: Blood uptake", "value": "0.57 ± 0.11", "unit": "%ID/g"}, {"measurement": "tissue uptake at 1 h", "setting": "[2]; bone, 1 h blocked: co-injected with 100 µg nonradioactive Ga-complexed standard, read-out: Bone uptake, blocked", "value": "0.03 ± 0.03", "unit": "%ID/g"}, {"measurement": "tissue uptake at 1 h", "setting": "[2]; bone, 1 h post injection, read-out: Bone uptake", "value": "0.14 ± 0.06", "unit": "%ID/g"}, {"measurement": "tissue uptake at 1 h", "setting": "[2]; brain, 1 h blocked: co-injected with 100 µg nonradioactive Ga-complexed standard, read-out: Brain uptake, blocked", "value": 0.01, "unit": "%ID/g"}, {"measurement": "tissue uptake at 1 h", "setting": "[2]; brain, 1 h post injection, read-out: Brain uptake", "value": "0.03 ± 0.01", "unit": "%ID/g"}, {"measurement": "tissue uptake at 1 h", "setting": "[2]; fat, 1 h blocked: co-injected with 100 µg nonradioactive Ga-complexed standard, read-out: Fat uptake, blocked", "value": "0.04 ± 0.01", "unit": "%ID/g"}, {"measurement": "tissue uptake at 1 h", "setting": "[2]; fat, 1 h post injection, read-out: Fat uptake", "value": "0.05 ± 0.01", "unit": "%ID/g"}, {"measurement": "tissue uptake at 1 h", "setting": "[2]; heart, 1 h blocked: co-injected with 100 µg nonradioactive Ga-complexed standard, read-out: Heart uptake, blocked", "value": "0.1 ± 0.02", "unit": "%ID/g"}, {"measurement": "tissue uptake at 1 h", "setting": "[2]; heart, 1 h post injection, read-out: Heart uptake", "value": "0.19 ± 0.03", "unit": "%ID/g"}, {"measurement": "tissue uptake at 1 h", "setting": "[2]; kidneys, 1 h blocked: co-injected with 100 µg nonradioactive Ga-complexed standard, read-out: Kidneys uptake, blocked", "value": "1.95 ± 0.44", "unit": "%ID/g"}, {"measurement": "tissue uptake at 1 h", "setting": "[2]; kidneys, 1 h post injection, read-out: Kidneys uptake", "value": "2.88 ± 0.68", "unit": "%ID/g"}, {"measurement": "tissue uptake at 1 h", "setting": "[2]; large intestine, 1 h blocked: co-injected with 100 µg nonradioactive Ga-complexed standard, read-out: Large intestine uptake, blocked", "value": "0.19 ± 0.17", "unit": "%ID/g"}, {"measurement": "tissue uptake at 1 h", "setting": "[2]; large intestine, 1 h post injection, read-out: Large intestine uptake", "value": "0.34 ± 0.15", "unit": "%ID/g"}, {"measurement": "tissue uptake at 1 h", "setting": "[2]; liver, 1 h blocked: co-injected with 100 µg nonradioactive Ga-complexed standard, read-out: Liver uptake, blocked", "value": "0.29 ± 0.2", "unit": "%ID/g"}, {"measurement": "tissue uptake at 1 h", "setting": "[2]; liver, 1 h post injection, read-out: Liver uptake", "value": "0.44 ± 0.05", "unit": "%ID/g"}, {"measurement": "tissue uptake at 1 h", "setting": "[2]; lungs, 1 h blocked: co-injected with 100 µg nonradioactive Ga-complexed standard, read-out: Lungs uptake, blocked", "value": "0.33 ± 0.09", "unit": "%ID/g"}, {"measurement": "tissue uptake at 1 h", "setting": "[2]; lungs, 1 h post injection, read-out: Lungs uptake", "value": "0.55 ± 0.06", "unit": "%ID/g"}, {"measurement": "tissue uptake at 1 h", "setting": "[2]; muscle, 1 h blocked: co-injected with 100 µg nonradioactive Ga-complexed standard, read-out: Muscle uptake, blocked", "value": "0.06 ± 0.02", "unit": "%ID/g"}, {"measurement": "tissue uptake at 1 h", "setting": "[2]; muscle, 1 h post injection, read-out: Muscle uptake", "value": "0.13 ± 0.02", "unit": "%ID/g"}, {"measurement": "tissue uptake at 1 h", "setting": "[2]; pancreas, 1 h blocked: co-injected with 100 µg nonradioactive Ga-complexed standard, read-out: Pancreas uptake, blocked", "value": "0.1 ± 0.03", "unit": "%ID/g"}, {"measurement": "tissue uptake at 1 h", "setting": "[2]; pancreas, 1 h post injection, read-out: Pancreas uptake", "value": "0.53 ± 0.11", "unit": "%ID/g"}, {"measurement": "tissue uptake at 1 h", "setting": "[2]; small intestine, 1 h blocked: co-injected with 100 µg nonradioactive Ga-complexed standard, read-out: Small intestine uptake, blocked", "value": "0.26 ± 0.09", "unit": "%ID/g"}, {"measurement": "tissue uptake at 1 h", "setting": "[2]; small intestine, 1 h post injection, read-out: Small intestine uptake", "value": "0.43 ± 0.04", "unit": "%ID/g"}, {"measurement": "tissue uptake at 1 h", "setting": "[2]; spleen, 1 h blocked: co-injected with 100 µg nonradioactive Ga-complexed standard, read-out: Spleen uptake, blocked", "value": "0.12 ± 0.02", "unit": "%ID/g"}, {"measurement": "tissue uptake at 1 h", "setting": "[2]; spleen, 1 h post injection, read-out: Spleen uptake", "value": "0.25 ± 0.04", "unit": "%ID/g"}, {"measurement": "tissue uptake at 1 h", "setting": "[2]; stomach, 1 h blocked: co-injected with 100 µg nonradioactive Ga-complexed standard, read-out: Stomach uptake, blocked", "value": "0.04 ± 0.02", "unit": "%ID/g"}, {"measurement": "tissue uptake at 1 h", "setting": "[2]; stomach, 1 h post injection, read-out: Stomach uptake", "value": "0.34 ± 0.14", "unit": "%ID/g"}, {"measurement": "tissue uptake at 1 h", "setting": "[2]; testes, 1 h blocked: co-injected with 100 µg nonradioactive Ga-complexed standard, read-out: Testes uptake, blocked", "value": "0.13 ± 0.05", "unit": "%ID/g"}, {"measurement": "tissue uptake at 1 h", "setting": "[2]; testes, 1 h post injection, read-out: Testes uptake", "value": "0.17 ± 0.05", "unit": "%ID/g"}, {"measurement": "tissue to tissue ratio at 1 h", "setting": "[2]; tumor and bone, 1 h blocked: co-injected with 100 µg nonradioactive Ga-complexed standard, read-out: Tumor/bone uptake ratio, blocked", "value": "27.1 ± 18.1"}, {"measurement": "tissue to tissue ratio at 1 h", "setting": "[2]; tumor and bone, 1 h post injection, read-out: Tumor/bone uptake ratio", "value": "43.6 ± 22.6"}, {"measurement": "tissue to tissue ratio at 1 h", "setting": "[2]; tumor and kidney, 1 h blocked: co-injected with 100 µg nonradioactive Ga-complexed standard, read-out: Tumor/kidney uptake ratio, blocked", "value": "0.22 ± 0.05"}, {"measurement": "tissue to tissue ratio at 1 h", "setting": "[2]; tumor and kidney, 1 h post injection, read-out: Tumor/kidney uptake ratio", "value": "1.92 ± 0.41"}, {"measurement": "tissue to tissue ratio at 1 h", "setting": "[2]; tumor and muscle, 1 h blocked: co-injected with 100 µg nonradioactive Ga-complexed standard, read-out: Tumor/muscle uptake ratio, blocked", "value": "8.28 ± 2.7"}, {"measurement": "tissue to tissue ratio at 1 h", "setting": "[2]; tumor and muscle, 1 h post injection, read-out: Tumor/muscle uptake ratio", "value": "44.4 ± 14.1"}, {"measurement": "tissue to tissue ratio at 1 h", "setting": "[2]; tumor and pancreas, 1 h blocked: co-injected with 100 µg nonradioactive Ga-complexed standard, read-out: Tumor/pancreas uptake ratio, blocked", "value": "4.3 ± 0.83"}, {"measurement": "tissue to tissue ratio at 1 h", "setting": "[2]; tumor and pancreas, 1 h post injection, read-out: Tumor/pancreas uptake ratio", "value": "10.7 ± 4.17"}, {"measurement": "tissue to tissue ratio at 1 h", "setting": "[2]; tumor and whole blood, 1 h blocked: co-injected with 100 µg nonradioactive Ga-complexed standard, read-out: Tumor/blood uptake ratio, blocked", "value": "1.23 ± 0.14"}, {"measurement": "tissue to tissue ratio at 1 h", "setting": "[2]; tumor and whole blood, 1 h post injection, read-out: Tumor/blood uptake ratio", "value": "9.68 ± 2.84"}, {"measurement": "Reduction of average pancreas uptake by co-injection of nonradioactive standard", "setting": "[3]", "value": 81, "unit": "%"}, {"measurement": "Reduction of average uptake in PC-3 tumor xenografts by co-injection of nonradioactive standard", "setting": "[3]", "value": 92, "unit": "%"}, {"measurement": "logD", "setting": "[4]", "value": "-2.3 ± 0.14"}]}]}
